{"source": "patent US20240376151A1", "about": "“STAPLED PEPTIDES AND METHODS THEREOF” (FOG PHARMACEUTICALS, INC., priority 2022, published 2024)", "molecular_target": "T1, MDM2 (Homo sapiens, UniProt Q00987)", "T1 construct": "made in house", "T1 sequence (Q00987 25-109)": "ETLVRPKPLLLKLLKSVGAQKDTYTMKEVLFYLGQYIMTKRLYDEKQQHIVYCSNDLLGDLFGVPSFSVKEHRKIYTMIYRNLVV", "test": "Naive Library Presenter Screening (phage, NGS), MDM2", "type": "binding", "settings": "for interaction data, BLANK: Blank = Media only", "key": {"[1]": {"settings": "MDM2 clusters (C82, C85), first column"}, "[2]": {"settings": "MDM2 clusters (C82, C85), second column"}, "[3]": {"settings": "MDM2 clusters (C82, C85), target concentration 10 nM"}, "[4]": {"settings": "MDM2 clusters (C82, C85), target concentration 30 nM"}, "[5]": {"settings": "MDM2 clusters (C82, C85), target concentration 100 nM"}, "[6]": {"settings": "MDM2 clusters (C82, C85), target concentration 300 nM"}, "[7]": {"settings": "MDM2 clusters (C82, C85), target concentration 1000 nM, first column"}, "[8]": {"settings": "MDM2 clusters (C82, C85), target concentration 1000 nM, second column"}, "[9]": {"settings": "MDM2 target concentration 10 nM"}, "[10]": {"settings": "MDM2 target concentration 30 nM"}, "[11]": {"settings": "MDM2 target concentration 100 nM"}, "[12]": {"settings": "MDM2 target concentration 300 nM"}, "[13]": {"settings": "MDM2 target concentration 1000 nM, second column"}}, "note": "Numbered stars: 1 amine (or outer) side, 2 acyl side, 3 side chain; on linkers, the order of the positions; unused ones are H or OH. Bridge positions count the residues as written; N and C are the ends. Ends that are not written are not given here. Phenylene(1,4-NHCOCH2)2 = O=C(C[*:1])Nc1ccc(NC(=O)C[*:2])cc1"}
{"sequence": "DPARRECMDAAFWCQWV (DPARRECMDAAFWCQWV-NH2; linker 7-14 via Phenylene(1,4-NHCOCH2)2 (inferred))", "values": [{"measurement": "interaction data, BLANK", "setting": "[1]", "result": 0}, {"measurement": "interaction data, BLANK", "setting": "[2]", "result": 0}, {"measurement": "interaction data at Target Concentration 10", "setting": "[3]", "result": 0}, {"measurement": "interaction data at Target Concentration 30", "setting": "[4]", "result": 53}, {"measurement": "interaction data at Target Concentration 100", "setting": "[5]", "result": 106}, {"measurement": "interaction data at Target Concentration 300", "setting": "[6]", "result": 232}, {"measurement": "interaction data at Target Concentration 1000", "setting": "[7]", "result": 148}, {"measurement": "interaction data at Target Concentration 1000", "setting": "[8]", "result": 261}]}
{"sequence": "DPARVHCNQAAFMCHWV (DPARVHCNQAAFMCHWV-NH2; linker 7-14 via Phenylene(1,4-NHCOCH2)2 (inferred))", "values": [{"measurement": "interaction data, BLANK", "setting": "[1]", "result": 0}, {"measurement": "interaction data, BLANK", "setting": "[2]", "result": 0}, {"measurement": "interaction data at Target Concentration 10", "setting": "[3]", "result": 0}, {"measurement": "interaction data at Target Concentration 30", "setting": "[4]", "result": 0}, {"measurement": "interaction data at Target Concentration 100", "setting": "[5]", "result": 9}, {"measurement": "interaction data at Target Concentration 300", "setting": "[6]", "result": 6}, {"measurement": "interaction data at Target Concentration 1000", "setting": "[7]", "result": 14}, {"measurement": "interaction data at Target Concentration 1000", "setting": "[8]", "result": 8}]}
{"sequence": "DPASADCFNAAWDCMWI (DPASADCFNAAWDCMWI-NH2; linker 7-14 via Phenylene(1,4-NHCOCH2)2 (inferred))", "values": [{"measurement": "interaction data, BLANK", "setting": "[1]", "result": 0}, {"measurement": "interaction data, BLANK", "setting": "[2]", "result": 0}, {"measurement": "interaction data at Target Concentration 10", "setting": "[3]", "result": 0}, {"measurement": "interaction data at Target Concentration 30", "setting": "[4]", "result": 19}, {"measurement": "interaction data at Target Concentration 100", "setting": "[5]", "result": 102}, {"measurement": "interaction data at Target Concentration 300", "setting": "[6]", "result": 165}, {"measurement": "interaction data at Target Concentration 1000", "setting": "[7]", "result": 124}, {"measurement": "interaction data at Target Concentration 1000", "setting": "[8]", "result": 209}]}
{"sequence": "DPASAECFFAAWQCIAT (DPASAECFFAAWQCIAT-NH2; linker 7-14 via Phenylene(1,4-NHCOCH2)2 (inferred))", "values": [{"measurement": "interaction data, BLANK", "setting": "[1]", "result": 0}, {"measurement": "interaction data, BLANK", "setting": "[2]", "result": 0}, {"measurement": "interaction data at Target Concentration 10", "setting": "[3]", "result": 0}, {"measurement": "interaction data at Target Concentration 30", "setting": "[4]", "result": 8}, {"measurement": "interaction data at Target Concentration 100", "setting": "[5]", "result": 28}, {"measurement": "interaction data at Target Concentration 300", "setting": "[6]", "result": 27}, {"measurement": "interaction data at Target Concentration 1000", "setting": "[7]", "result": 33}, {"measurement": "interaction data at Target Concentration 1000", "setting": "[8]", "result": 14}]}
{"sequence": "DPASEACFQAAWDCVSW (DPASEACFQAAWDCVSW-NH2; linker 7-14 via Phenylene(1,4-NHCOCH2)2 (inferred))", "values": [{"measurement": "interaction data at Target Concentration 10", "setting": "[9]", "result": 2}, {"measurement": "interaction data at Target Concentration 30", "setting": "[10]", "result": 57}, {"measurement": "interaction data at Target Concentration 100", "setting": "[11]", "result": 241}, {"measurement": "interaction data at Target Concentration 300", "setting": "[12]", "result": 559}, {"measurement": "interaction data at Target Concentration 1000", "setting": "MDM2 target concentration 1000 nM, first column", "result": 336}, {"measurement": "interaction data at Target Concentration 1000", "setting": "[13]", "result": 447}]}
{"sequence": "DPASQDCFSAAWQCLQT (DPASQDCFSAAWQCLQT-NH2; linker 7-14 via Phenylene(1,4-NHCOCH2)2 (inferred))", "values": [{"measurement": "interaction data, BLANK", "setting": "[1]", "result": 0}, {"measurement": "interaction data, BLANK", "setting": "[2]", "result": 0}, {"measurement": "interaction data at Target Concentration 10", "setting": "[3]", "result": 0}, {"measurement": "interaction data at Target Concentration 30", "setting": "[4]", "result": 31}, {"measurement": "interaction data at Target Concentration 100", "setting": "[5]", "result": 138}, {"measurement": "interaction data at Target Concentration 300", "setting": "[6]", "result": 165}, {"measurement": "interaction data at Target Concentration 1000", "setting": "[7]", "result": 94}, {"measurement": "interaction data at Target Concentration 1000", "setting": "[8]", "result": 231}]}
{"sequence": "DPATESCEDAAFWCHWI (DPATESCEDAAFWCHWI-NH2; linker 7-14 via Phenylene(1,4-NHCOCH2)2 (inferred))", "values": [{"measurement": "interaction data, BLANK", "setting": "[1]", "result": 0}, {"measurement": "interaction data, BLANK", "setting": "[2]", "result": 0}, {"measurement": "interaction data at Target Concentration 10", "setting": "[3]", "result": 0}, {"measurement": "interaction data at Target Concentration 30", "setting": "[4]", "result": 0}, {"measurement": "interaction data at Target Concentration 100", "setting": "[5]", "result": 30}, {"measurement": "interaction data at Target Concentration 300", "setting": "[6]", "result": 30}, {"measurement": "interaction data at Target Concentration 1000", "setting": "[7]", "result": 30}, {"measurement": "interaction data at Target Concentration 1000", "setting": "[8]", "result": 70}]}
{"sequence": "DPATQQCFQAAWDCQFM (linker 7-14 via Phenylene(1,4-NHCOCH2)2 (inferred))", "values": [{"measurement": "interaction data at Target Concentration 10", "setting": "[9]", "result": 1}, {"measurement": "interaction data at Target Concentration 30", "setting": "[10]", "result": 60}, {"measurement": "interaction data at Target Concentration 100", "setting": "[11]", "result": 324}, {"measurement": "interaction data at Target Concentration 300", "setting": "[12]", "result": 683}, {"measurement": "interaction data at Target Concentration 1000", "setting": "[13]", "result": 679}]}
{"sequence": "DPAVTECFQAAWRCMVM (linker 7-14 via Phenylene(1,4-NHCOCH2)2 (inferred); not fully specified (C-terminus))", "values": [{"measurement": "interaction data, BLANK", "setting": "[1]", "result": 0}, {"measurement": "interaction data, BLANK", "setting": "[2]", "result": 0}, {"measurement": "interaction data at Target Concentration 10", "setting": "[3]", "result": 0}, {"measurement": "interaction data at Target Concentration 30", "setting": "[4]", "result": 77}, {"measurement": "interaction data at Target Concentration 100", "setting": "[5]", "result": 184}, {"measurement": "interaction data at Target Concentration 300", "setting": "[6]", "result": 276}, {"measurement": "interaction data at Target Concentration 1000", "setting": "[7]", "result": 269}, {"measurement": "interaction data at Target Concentration 1000", "setting": "[8]", "result": 268}]}
